The source of these data is US20110152183A1 (Novo Nordisk, published 2011).

The target in test [1] is T1, Amylin 3(a) receptor (human calcitonin receptor (CTa) coexpressed with RAMP-3) on BHK570 cells (human, UniProt P30988 25-474).
T1 sequence (P30988 whole entry, looked up): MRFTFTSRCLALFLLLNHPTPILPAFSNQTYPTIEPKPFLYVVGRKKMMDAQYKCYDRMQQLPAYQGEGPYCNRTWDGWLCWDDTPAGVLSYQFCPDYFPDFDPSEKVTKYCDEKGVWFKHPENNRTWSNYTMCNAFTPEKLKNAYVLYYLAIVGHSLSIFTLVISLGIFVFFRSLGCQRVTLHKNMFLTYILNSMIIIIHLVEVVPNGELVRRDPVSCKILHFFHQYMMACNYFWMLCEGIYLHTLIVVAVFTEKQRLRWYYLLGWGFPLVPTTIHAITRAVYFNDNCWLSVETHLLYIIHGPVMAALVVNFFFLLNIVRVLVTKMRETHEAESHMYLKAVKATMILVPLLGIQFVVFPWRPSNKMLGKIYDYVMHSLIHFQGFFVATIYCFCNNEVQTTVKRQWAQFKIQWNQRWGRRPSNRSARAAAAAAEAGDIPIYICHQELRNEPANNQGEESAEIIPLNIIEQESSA
T1 sequence (O60896 whole entry, looked up): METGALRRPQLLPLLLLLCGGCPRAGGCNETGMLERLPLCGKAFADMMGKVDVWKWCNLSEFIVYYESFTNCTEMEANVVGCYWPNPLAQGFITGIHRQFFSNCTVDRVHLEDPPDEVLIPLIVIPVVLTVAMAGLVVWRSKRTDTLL
Put plainly: cell-based or functional assay.

Test [2] has as its target Amylin 3(a) receptor (human calcitonin receptor (CTa) coexpressed with RAMP-3) on BHK570 cells (human, UniProt P30988 25-474). Nature of the test: cell-based or functional assay. The source holds these as a separate data set.

Bridge positions count the residues as written; N and C are the ends.

B1: Amylin (1-8)-[Arg11,Arg18]sCT (9-27)-amylin (33-37) (peptide)
peptide: KCNTATCALGRLSQELHRLQTYPRTNTGSNTY
HELM: PEPTIDE1{K.C.N.T.A.T.C.A.L.G.R.L.S.Q.E.L.H.R.L.Q.T.Y.P.R.T.N.T.G.S.N.T.Y.[am]}$PEPTIDE1,PEPTIDE1,2:R3-7:R3$$$V2.0; N-terminus assumed
SMILES: CC(C)C[C@H](NC(=O)[C@H](C)NC(=O)[C@@H]1CSSC[C@H](NC(=O)[C@@H](N)CCCCN)C(=O)N[C@@H](CC(N)=O)C(=O)N[C@@H]([C@@H](C)O)C(=O)N[C@@H](C)C(=O)N[C@@H]([C@@H](C)O)C(=O)N1)C(=O)NCC(=O)N[C@@H](CCCNC(=N)N)C(=O)N[C@@H](CC(C)C)C(=O)N[C@@H](CO)C(=O)N[C@@H](CCC(N)=O)C(=O)N[C@@H](CCC(=O)O)C(=O)N[C@@H](CC(C)C)C(=O)N[C@@H](Cc1c[nH]cn1)C(=O)N[C@@H](CCCNC(=N)N)C(=O)N[C@@H](CC(C)C)C(=O)N[C@@H](CCC(N)=O)C(=O)N[C@H](C(=O)N[C@@H](Cc1ccc(O)cc1)C(=O)N1CCC[C@H]1C(=O)N[C@@H](CCCNC(=N)N)C(=O)N[C@H](C(=O)N[C@@H](CC(N)=O)C(=O)N[C@H](C(=O)NCC(=O)N[C@@H](CO)C(=O)N[C@@H](CC(N)=O)C(=O)N[C@H](C(=O)N[C@@H](Cc1ccc(O)cc1)C(N)=O)[C@@H](C)O)[C@@H](C)O)[C@@H](C)O)[C@@H](C)O
For the molecule B1, in test [1], the “EC50 (pM) in luciferase assay” value came to 3 pM.

B2: [His1]amylin (1-8)-[His11,His18,His24]sCT (9-27)-amylin (33-37) (peptide)
peptide: HCNTATCALGHLSQELHHLQTYPHTNTGSNTY
HELM: PEPTIDE1{H.C.N.T.A.T.C.A.L.G.H.L.S.Q.E.L.H.H.L.Q.T.Y.P.H.T.N.T.G.S.N.T.Y.[am]}$PEPTIDE1,PEPTIDE1,2:R3-7:R3$$$V2.0; N-terminus assumed
SMILES: CC(C)C[C@H](NC(=O)[C@H](C)NC(=O)[C@@H]1CSSC[C@H](NC(=O)[C@@H](N)Cc2c[nH]cn2)C(=O)N[C@@H](CC(N)=O)C(=O)N[C@@H]([C@@H](C)O)C(=O)N[C@@H](C)C(=O)N[C@@H]([C@@H](C)O)C(=O)N1)C(=O)NCC(=O)N[C@@H](Cc1c[nH]cn1)C(=O)N[C@@H](CC(C)C)C(=O)N[C@@H](CO)C(=O)N[C@@H](CCC(N)=O)C(=O)N[C@@H](CCC(=O)O)C(=O)N[C@@H](CC(C)C)C(=O)N[C@@H](Cc1c[nH]cn1)C(=O)N[C@@H](Cc1c[nH]cn1)C(=O)N[C@@H](CC(C)C)C(=O)N[C@@H](CCC(N)=O)C(=O)N[C@H](C(=O)N[C@@H](Cc1ccc(O)cc1)C(=O)N1CCC[C@H]1C(=O)N[C@@H](Cc1c[nH]cn1)C(=O)N[C@H](C(=O)N[C@@H](CC(N)=O)C(=O)N[C@H](C(=O)NCC(=O)N[C@@H](CO)C(=O)N[C@@H](CC(N)=O)C(=O)N[C@H](C(=O)N[C@@H](Cc1ccc(O)cc1)C(N)=O)[C@@H](C)O)[C@@H](C)O)[C@@H](C)O)[C@@H](C)O
On to B2, for which the “EC50 (pM) in luciferase assay” value in test [2] was determined as 10 pM. Take {4‑carboxy‑4‑(19-carboxy-nonadecanoylamino)butyryl}-KCNTATCALGRLSQELHRLQTYPRTNTGSNTY-NH2 (disulfide 2-7): the “EC50 (pM) in luciferase assay” value in test [1] amounted to 50 pM.
